Test results: paper PMC9922815

Molecular target: rabbit skeletal muscle F-actin (rabbit) (UniProt P68135)
Assay: co-sedimentation; high-speed F-actin cosedimentation: 5 uM UtrN-R3 incubated 30 min with 0-160 uM phalloidin-stabilized F-actin, 100,000g for 20 min; F-buffer (4.5 mM Tris-HCl pH 8.0, 0.18 mM CaCl2, 50 mM KCl, 2 mM MgCl2, 1.2 mM ATP, 0.5 mM DTT); bound and free by densitometry of Coomassie gels, hyperbola fit

Substance	Kd [µM]
UtrN-R3 WT, insect cell-derived (mouse utrophin fragment encoding the N terminus through spectrin repeat 3, phosphorylated) (from UniProt E9Q6R7 1-3430) (domain or fragment)	84.5
UtrN-R3 WT, bacterially derived (mouse utrophin fragment encoding the N terminus through spectrin repeat 3, not phosphorylated) (from UniProt E9Q6R7 1-3430) (domain or fragment)	105
